How the values were obtained:
PITG_04701 HSF = PITG_04701 HSF (Phytophthora infestans, UniProt D0N1U7 1-190); experiment: EMSA; settings: protein: recombinant, tags: 6xHis, GST (N- or C-terminal, per PBM vectors), chain copies: 3, blunt
PITG_08807 2R-Myb = PITG_08807 2R-Myb (Phytophthora infestans, UniProt D0ND89 1-188); experiment: EMSA; self-competition with unlabeled DNA; settings: protein: recombinant; tags: 6xHis; GST (N- or C-terminal, per PBM vectors); label: Cy5 (probe); blunt

B1: HSF two-site (wild-type motif) (dsDNA)
DNA 1: TAAATATAGCACGCTTCTAGAAACTGCAGCACAACA
DNA 2: TGTTGTGCTGCAGTTTCTAGAAGCGTGCTATATTTA
Does B1 bind (PITG_04701 HSF; label: Cy5 (probe))?
Result: binds

B2: HSF three-site (dsDNA)
DNA 1: TAAATATAGCACGCGAATATTCTAGAAACTGCAGCACAACA
DNA 2: TGTTGTGCTGCAGTTTCTAGAATATTCGCGTGCTATATTTA
Does B2 bind (PITG_04701 HSF; label: Cy5)?
Result: binds

B3: Myb wild-type motif (dsDNA)
DNA 1: CTACACTATCATTCTCCGTTACGTCCTACTGTATTGG
DNA 2: CCAATACAGTAGGACGTAACGGAGAATGATAGTGTAG
Does B3 bind (PITG_08807 2R-Myb)?
Result: binds

Reference: PMC11267843, “Transcription factor binding specificities of the oomycete Phytophthora infestans reflect conserved and divergent evolutionary patterns and predict function”
